Data taken from article PMC2714988, “Dimerization of Hepatitis E Virus Capsid Protein E2s Domain Is Essential for Virus–Host Interaction” (PLoS Pathogens, 2009).

Key:
[1] = target: E2-K534A (Hepatitis E virus) (UniProt Q81871); experiment: non-reducing SDS-PAGE; loading buffer with only 0.1% SDS, no BME, sample not boiled; compared with MW markers
[2] = target: HEV capsid protein domain E2s (ORF2 aa455-602) (Hepatitis E virus) (UniProt Q81871); experiment: AUC; sedimentation equilibrium; 20°C; phosphate-buffered saline pH 7.4; E2s at 0.69, 0.36 and 0.14 OD; 18,000, 21,000 and 24,000 rpm; single ideal species model and self-association monomer-dimer model; dimer to monomers
[3] = target: HEV capsid protein domain E2s (ORF2 aa455-602) (Hepatitis E virus) (UniProt Q81871); experiment: SEC; Superdex 75 10/300GL in phosphate-buffered saline pH 7.4, 0.5 ml/min, against molecular weight standards
[4] = target: HEV capsid protein domain E2s (ORF2 aa455-602) (Hepatitis E virus) (UniProt Q81871); experiment: AUC; sedimentation velocity; 20°C; E2s 1 mg/ml in phosphate-buffered saline pH 7.4; 60,000 rpm; c(s) method
[5] = target: E2s-Y557A (Hepatitis E virus) (UniProt Q81871); experiment: AUC; sedimentation equilibrium; 20°C; phosphate-buffered saline pH 7.4; E2s at 0.69, 0.36 and 0.14 OD; 18,000, 21,000 and 24,000 rpm; single ideal species model and self-association monomer-dimer model; dimer to monomers
[6] = target: E2-Y485A (Hepatitis E virus) (UniProt Q81871); experiment: non-reducing SDS-PAGE; loading buffer with only 0.1% SDS, no BME, sample not boiled; compared with MW markers
[7] = target: E2-D496A (Hepatitis E virus) (UniProt Q81871); experiment: as above
[8] = target: E2-I529A (Hepatitis E virus) (UniProt Q81871); experiment: as above
[9] = target: E2-E479A (Hepatitis E virus) (UniProt Q81871); experiment: as above
[10] = target: E2-R542A (Hepatitis E virus) (UniProt Q81871); experiment: not stated; 'in solution'; the paragraph names non-reducing SDS-PAGE, analytical ultracentrifugation and gel filtration for the mutants without telling which was used here
[11] = target: HEV capsid protein E2 (ORF2 aa394-606), wild type (Hepatitis E virus, UniProt Q81871 394-606); experiment: non-reducing SDS-PAGE; loading buffer with only 0.1% SDS, no BME, sample not boiled; compared with MW markers; conditions: both partners purified

**Q.** Which stoichiometry N [1] does the source give for “E2-K534A (from UniProt Q81871 394-606) (domain or fragment)” here?
**A.** 2

**Q.** Which results are given for “HEV capsid protein domain E2s (ORF2 aa455-602) (from UniProt Q81871 455-602) (domain or fragment)”?
**A.** Kd [2]: 397 nM; stoichiometry N [2]: 2; stoichiometry N [3]: 2; stoichiometry N [4]: 2

**Q.** How did the stoichiometry N [5] turn out when “E2s-Y557A (from UniProt Q81871 455-602) (domain or fragment)” was run?
**A.** 2

**Q.** Which stoichiometry N [6] does the source give for “E2-Y485A (from UniProt Q81871 394-606) (domain or fragment)” here?
**A.** 2

**Q.** With “E2-D496A (from UniProt Q81871 394-606) (domain or fragment)” as the molecule, how does the stoichiometry N [7] read?
**A.** 2

**Q.** For “E2-I529A (from UniProt Q81871 394-606) (domain or fragment)”, which stoichiometry N [8] is on record?
**A.** 2

**Q.** How did the stoichiometry N [9] turn out when “E2-E479A (from UniProt Q81871 394-606) (domain or fragment)” was run?
**A.** 2

**Q.** “E2-R542A (from UniProt Q81871 394-606) (domain or fragment)” was tested. Which stoichiometry N [10] did it give?
**A.** 2

B1: HEV capsid protein E2 (ORF2 aa394-606), wild type (domain or fragment)
chain: MQLFYSRPVVSANGEPTVKLYTSVENAQQDKGIAIPHDIDLGESRVVIQDYDNQHEQDRPTPSPAPSRPFSVLRANDVLWLSLTAAEYDQSTYGSSTGPVYVSDSVTLVNVATGAQAVARSLDWTKVTLDGRPLSTIQQHSKTFFVLPLRGKLSFWEAGTTKAGYPYNYNTTASDQLLVENAAGHRVAISTYTTSLGAGPVSISAVAVLAPHSA
modifications: Wild-type E2, aa394-606, with start Met. The E2s gene was amplified from this E2 gene, so aa455-602 are taken from 3GGQ; the flanks come from genotype 1 Q81871 because the strain is not printed. …
**Q.** B1 was tested. Which “stoichiometry N” value [11] did it give?
**A.** 2
